According to paper PMC4069081, “Multivalent Viral Capsids with Internal Cargo for Fibrin Imaging” (PLoS ONE, 2014):

Assays:
[1] = biological target: fibrin clots formed from purified bovine fibrinogen with thrombin and CaCl2 (bovine) (UniProt P12799)
[2] = system: fibrin; settings: competitive binding to the fibrin polymerization pocket; ref [39], [40]; cited from earlier work
Description: (§1) In this work, a peptide targeting group (GPR) with an affinity for fibrin was chosen to create a thrombus targeted VLP [38]. The GPR peptide was derived from the N-terminus of the α-chain of fibrin (Gly-Pro-Arg), and was discovered to bind to a pocket in the C-terminal region of the γ-chain [39], [40].

[3] = system: fibrin; settings: compared with original peptide (Gly-Pro-Arg); ref [41]; cited from earlier work
Method: In this work, a peptide targeting group (GPR) with an affinity for fibrin was chosen to create a thrombus targeted VLP [38]. The GPR peptide was derived from the N-terminus of the α-chain of fibrin (Gly-Pro-Arg), and was discovered to bind to a pocket in the C-terminal region of the γ-chain [39], [40]. […] A GPR peptide bearing an o-aminophenol for coupling to MS2 was prepared using solid phase peptide synthesis (Figure 1b). The sequence Gly-Gly-Ser-Lys-Gly-Tyr was added to the peptide to increase the spacing between the binding residues and the capsid, as well as provide a functional handle for modification (Tyr). For peptide samples used in op ...

[4] = compared with original peptide (Gly-Pro-Arg); ref [41]; cited from earlier work
Description: as §1

free GPS peptide with C-terminal tyrosine
thrombin-induced clotting time of fibrin (light scattering at 350 nm) at 20 µM peptide; unchanged [1]: 13 min

Gly-Pro-Arg [originally discovered peptide from N-terminus of the α-chain of fibrin]
Inhibition of thrombin-mediated fibrin clotting [2]: inhibit thrombin-mediated fibrin clotting

GPS-MS2: bacteriophage MS2 T19pAF/N87C capsid with the GPS control peptide coupled to its exterior
thrombin-induced clotting time of fibrin (light scattering at 350 nm) at 222 nM MS2 capsid (~20 µM peptide); unchanged [1]: 16 min

Gly-Pro-Arg-Pro-Pro
Fibrin binding of extended peptide [3]: improved fibrin-binding
Proteolytic resistance [4]: increased proteolytic resistance

MS2 capsids (T19pAF/N87C) without peptide
thrombin-induced clotting time of fibrin (light scattering at 350 nm) at 222 nM MS2 capsid; unchanged [1]: 16 min

GPR-MS2: bacteriophage MS2 T19pAF/N87C capsid with the GPR fibrin-targeting peptide coupled to its exterior
thrombin-induced clotting time of fibrin (light scattering at 350 nm) at 222 nM MS2 capsid (~20 µM peptide) [1]: 51 min

free GPR peptide with C-terminal tyrosine
peptide concentration at which thrombin-induced clotting is inhibited (10 µM to 1.7 mM tested) [1]: > 300 µM
thrombin-induced clotting time of fibrin (light scattering at 350 nm) at 20 µM peptide; unchanged [1]: 18 min
